Experimental data taken from US20060078953.

System: histone H4 methylated at arginine 3

commercially available skeletal muscle PAD
Western blot staining with antibodies to methylated arginine 3 H4 after PAD treatment: A complete loss of staining with antibodies to this modification was observed following PAD treatment.
